Legend:
[1] = tested on: human tumors; assay: Immunohistochemistry on formalin-fixed paraffin embedded tissue microarrays of human tumors; conditions: primary antibody 1 to 5 μg/ml; 47 human tumors
Protocol: Initial immunohistochemical analysis of antigens recognized by SEAM 3 was performed on unfixed tissues out of concern that the de-N-acetyl amino groups could be blocked by reaction with formaldehyde (vide supra). Subsequently, it was determined that the amino group in de-N-acetyl sialic acid is relatively unreactive as a result of its close proximity to the C1 carboxyl group. Therefore, large scale screening of human tumors for the presence of SEAM 3-reactive antigens was performed using formalin-fixed paraffin embedded tissue sections since processing the samples by this method considerably improves the preservation of cell structural features.
Human tissue microarrays were obtained from US BioMax (Rockville, Md.). The tissue microarrays were deparaffinized in xylene (2 changes, 10 minutes each) then rehydrated by sequential 5 minute washes in 100% ethanol, 95% ethanol, 70% ethanol, 50% ethanol, and PBS buffer. Endogenous peroxidase was blocked by incubation with Peroxidazed 1 solution (Biocare, Concord, Calif.) for 5 minutes at ambient temperature. The sections were blocked with Terminator (Biocare) containing streptavidin then rinsed with PBS buffer. […]

[2] = HPTLC / Western blot reactivity with chemically de-N-acylated GD3; assay type: binding; conditions: mAbs 5 μg/ml
Protocol: De-N-acyl GM3 and GD3 (Calbiochem) were prepared by suspending 1 mg of ganglioside in 2 ml of 2.5 M tetrabutylammonium hydroxide and 3 ml of butanol then heating the mixture to >100 degrees C. for 4 hours. After cooling the mixture to ambient temperature, the pH was adjusted to about 7 by adding 2 M HCl and the butanol removed by evaporation under a stream of N2. The remaining aqueous layer was dialyzed (1K cut-off dialysis tubing) against PBS buffer and used without further modification as an antigen for ELISA.
Lipids in the extract and in chemically de-N-acylated GD3 were analyzed by separation on high performance thin layer chromatography (HPTLC) and Western blot. Samples of the ganglioside extract, the ganglioside extract that had been treated with sodium borohydride (1 mg/100 μl at ambient temperature for 2 h) to remove the trichloroacetyl protecting group, and chemically de-N-acylated GD3 were spotted onto an aluminum-backed silica gel 60 HPTLC plate (Merck) and the plate developed in chloroform/methanol/0.02% CaCl2 (50:40:10). Plates used for Western blot were dried and dipped in a solution of 0.4% polyisobutylmethacrylate in hexame/chloroform (21:8) for 1 min. The plates were blocked with 1% bovine serum albumin (BSA) in PBS buffer containing 0.1% sodium azide. MAbs (5 μg/ml) in the same blocking buffer were incubated with the plates at 4° C. overnight. […]

[3] = tested on: Jurkat cells (acute lymphoblastic T-cell leukemia); conditions: approximately proportional to level of antigen on cell surface
[4] = tested on: SK-MEL-28 melanoma cells; assay: Fluorescence / confocal microscopy binding to cells; assay type: cell-based, human; conditions: without Triton
Protocol: (§1) After an overnight incubation cells were gently washed with PBS buffer and fixed with ice-cold 1% (v/v) formaldehyde. After 20 minutes cells were washed with PBS before blocking non-specific binding with a solution of 3% goat serum for 1 hour. To observe the presence of SEAM 3-reactive antigen that is present inside the cells, the cells were treated Triton X-100 0.5% w/v in 3% goat serum for 1 hour. The primary antibodies were added and incubated for 2 hours or overnight at 4° C. Cells were gently washed by a series (at least twice) with ice-cold PBS before isotype-specific secondary antibody (produced in goat) conjugated with either Alexa Fluor 488 (immunofluorescence and confocal), Alexa Fluor 546 (confocal) Alexa Fluor 594 (immunofluorescence), Alexa Fluor 633 (confocal) was applied for at least 1 hour at 4° C. in the dark (all secondary antibodies conjugated to fluorophores were obtained from Invitrogen, Carlsbad, Calif.). After another series of gentle washes, a hardening mounting medium containing DAPI was applied.
(§2) Confocal images were obtained using a Zeiss Meta510 CLSM at the Biological Imaging Facility, University of California, Berkeley, Calif. and were analyzed using ImageJ Software (NIH). Control antibodies and secondary antibodies applied alone were routinely used to assess background fluorescence.

[5] = tested on: CHP-134 neuroblastoma cells; assay: as above; assay type: cell-based, human; conditions: without Triton
Protocol: as §1, §2

B1: SEAM 3: murine anti-N-Pr NmB polysaccharide monoclonal antibody (IgG2b), ATCC Deposit No. HB-12170 (antibody, V domains shown)
VH: EVKLQESGGGLVQPGDSLSLSCAASGFTFTPYYMGWVRQPPGKALEWLGYIRNKANGYTTEYSASVKGRFTISRDNSQSILYLQMNALRAEDSATYYCARYARGTVDSWGQGTTLTVS
VL: DIVMTQSPLTLSVTIGQPASISCKSSQSLLHSNGKTYLNWLLQRPGQSPKLLIYLVSKLESGVPDRFSGSGSGTDFTLKISRVEAEDLGLYYCLQIIHFPHTFGAGTKLELKRA
modifications: mouse
- tumor samples positive for binding [1]: 38 of 47
- reactivity with de-N-acyl GD3 / de-N-acyl gangliosides produced by alkali treatment [2]: does not react
- cytotoxic effect [3]: cytotoxic effect of SEAM 3 was observed
- binding to cell surface by microscopy [4]: fluorescence is uniform over the cell surface
- binding to cell surface by microscopy [5]: fluorescence is uniform over the cell surface

— patent US9872921B2, “DE-N-acetyl sialic acid antigens, antibodies thereto, and methods of use in cancer therapy” (priority 2004, dated 2018)
